# Experimental data as given in publication doi:10.1101/2025.07.24.666634 (bioRxiv, 2025).
# B1: Escherichia coli dGTP Triphosphohydrolase (enzyme, UniProt P15723 1-505, looked up)
# chain: MAQIDFRKKINWHRRYRSPQGVKTEHEILRIFESDRGRIINSPAIRRLQQKTQVFPLERNAAVRTRLTHSMEVQQVGRYIAKEILSRLKELKLLEAYGLDELTGPFESIVEMSCLMHDIGNPPFGHFGEAAINDWFRQRLHPEDAESQPLTDDRCSVAALRLRDGEEPLNELRRKIRQDLCHFEGNAQGIRLVHTLMRMNLTWAQVGGILKYTRPAWWRGETPETHHYLMKKPGYYLSEEAYIARLRKELNLALYSRFPLTWIMEAADDISYCVADLEDAVEKRIFTVEQLYHHLHEAWGQHEKGSLFSLVVENAWEKSRSNSLSRSTEDQFFMYLRVNTLNKLVPYAAQRFIDNLPAIFAGTFNHALLEDASECSDLLKLYKNVAVKHVFSHPDVERLELQGYRVISGLLEIYRPLLSLSLSDFTELVEKERVKRFPIESRLFHKLSTRHRLAYVEAVSKLPSDSPEFPLWEYYYRCRLLQDYISGMTDLYAWDEYRRLMAVEQ
# notes: also called dGTPase; E. coli dGTPase
# Biological target: the molecule itself
# Assay: cryo-EM structure; blot-and-plunge, dGTPase 3 mg/mL on UltrAuFoil R1.2/1.3 Au300; single-particle analysis, D3 symmetry
protein,measurement,value
B1,binding result,binds
